In article PMC3656419 (Journal of molecular biology, 2008):

Assays:
crystal structure = biological target: the molecule itself; assay: crystal structure
AUC = biological target: the molecule itself; assay: AUC
SEC = biological target: the molecule itself; assay: SEC

Protein | stoichiometry N (crystal structure) | stoichiometry N (AUC) | stoichiometry N (SEC)
SeMet EcMenD (selenomethionine derivative of Escherichia coli MenD, histidine tag removed by proteolysis) (enzyme, E. coli (K12), selenomethionine in place of methionine (full incorporation of SeMet)) GHMSVSAFNRRWAAVILEALTRHGVRHICIAPGSRSTPLTLAAAENSAFIHHTHFDERGLGHLALGLAKVSKQPVAVIVTSGTAVANLYPALIEAGLTGEKLILLTADRPPELIDCGANQAIRQPGMFASHPTHSISLPRPTQDIPARWLVSTIDHALGTLHAGGVHINCPFAEPLYGEMDDTGLSWQQRLGDWWQDDKPWLREAPRLESEKQRDWFFWRQKRGVVVAGRMSAEEGKKVALWAQTLGWPLIGDVLSQTGQPLPCADLWLGNAKATSELQQAQIVVQLGSSLTGKRLLQWQASCEPEEYWIVDDIEGRLDPAHHRGRRLIANIADWLELHPAEKRQPWCVEIPRLAEQAMQAVIARRDAFGEAQLAHRICDYLPEQGQLFVGNSLVVRLIDALSQLPAGYPVYSNRGASGIDGLLSTAAGVQRASGKPTLAIVGDLSALYDLNALALLRQVSAPLVLIVVNNNGGQIFSLLPTPQSERERFYLMPQNVHFEHAAAMFELKYHRPQNWQELETAFADAWRTPTTTVIEMVVNDTDGAQTLQQLLAQVSHL | 4 | 3 | 2
native EcMenD (Escherichia coli 2-succinyl-5-enolpyruvyl-6-hydroxy-3-cyclohexadiene-1-carboxylate synthase), N-terminal hexahistidine-tagged (enzyme, E. coli (K12), UniProt P17109 1-556, looked up) MSVSAFNRRWAAVILEALTRHGVRHICIAPGSRSTPLTLAAAENSAFIHHTHFDERGLGHLALGLAKVSKQPVAVIVTSGTAVANLYPALIEAGLTGEKLILLTADRPPELIDCGANQAIRQPGMFASHPTHSISLPRPTQDIPARWLVSTIDHALGTLHAGGVHINCPFAEPLYGEMDDTGLSWQQRLGDWWQDDKPWLREAPRLESEKQRDWFFWRQKRGVVVAGRMSAEEGKKVALWAQTLGWPLIGDVLSQTGQPLPCADLWLGNAKATSELQQAQIVVQLGSSLTGKRLLQWQASCEPEEYWIVDDIEGRLDPAHHRGRRLIANIADWLELHPAEKRQPWCVEIPRLAEQAMQAVIARRDAFGEAQLAHRICDYLPEQGQLFVGNSLVVRLIDALSQLPAGYPVYSNRGASGIDGLLSTAAGVQRASGKPTLAIVGDLSALYDLNALALLRQVSAPLVLIVVNNNGGQIFSLLPTPQSERERFYLMPQNVHFEHAAAMFELKYHRPQNWQELETAFADAWRTPTTTVIEMVVNDTDGAQTLQQLLAQVSHL | – | – | 2
